Measurements: patent US20200140532A1
Where “and” joins values, the source holds several entries; their conditions need not be identical. Equal entries are not always repeated.

Tests used:
Assay in all cases: periplasmic extract ELISA, control
[1] = target: recombinant dog Aggrecan G1-IGD-G2 (dog) (UniProt Q28343)
[2] = target: recombinant cynomolgus Aggrecan G1-IGD-G2 (cynomolgus)
[3] = target: recombinant bovine Aggrecan G1-IGD-G2 (bovine) (UniProt P13608)
[4] = target: recombinant rat Aggrecan G1-IGD-G2 (rat) (UniProt P07897)
[5] = target: recombinant human Aggrecan G1-IGD-G2 (human) (UniProt P16112)

cAbLys3 (VHH) was tested, and the OD 450 nm [1] was 0.06 OD 450 nm, the OD 450 nm [2] was 0.06 OD 450 nm and 0.05 OD 450 nm and the OD 450 nm [3] was 0.05 OD 450 nm and 0.06 OD 450 nm. For the same substance, the OD 450 nm [4] was 0.06 OD 450 nm and the OD 450 nm [5] was 0.05 OD 450 nm.
